According to PMC3781949 (Molecular microbiology, 2011):

Target: the molecule itself
Assay: SPR

B1: Maf-His6, purified recombinant Maf (natural protein, B. subtilis, UniProt Q02169 1-189, looked up)
chain: MTKPLILASQSPRRKELLDLLQLPYSIIVSEVEEKLNRNFSPEENVQWLAKQKAKAVADLHPHAIVIGADTMVCLDGECLGKPQDQEEAASMLRRLSGRSHSVITAVSIQAENHSETFYDKTEVAFWSLSEEEIWTYIETKEPMDKAGAYGIQGRGALFVKKIDGDYYSVMGLPISKTMRALRHFDIRA
**Q.** Does B1 bind?
**A.** binds
